{"source": "IntAct's records for PubMed 27189942", "parents": {"B1": {"name": "MICAL-like protein 1 (Homo sapiens), Q8N3F8 (parent)", "chain": "MAGPRGALLAWCRRQCEGYRGVEIRDLSSSFRDGLAFCAILHRHRPDLLDFDSLSKDNVFENNRLAFEVAEKELGIPALLDPNDMVSMSVPDCLSIMTYVSQYYNHFCSPGQAGVSPPRKGLAPCSPPSVAPTPVEPEDVAQGEELSSGSLSEQGTGQTPSSTCAACQQHVHLVQRYLADGRLYHRHCFRCRRCSSTLLPGAYENGPEEGTFVCAEHCARLGPGTRSGTRPGPFSQPKQQHQQQLAEDAKDVPGGGPSSSAPAGAEADGPKASPEARPQIPTKPRVPGKLQELASPPAGRPTPAPRKASESTTPAPPTPRPRSSLQQENLVEQAGSSSLVNGRLHELPVPKPRGTPKPSEGTPAPRKDPPWITLVQAEPKKKPAPLPPSSSPGPPSQDSRQVENGGTEEVAQPSPTASLESKPYNPFEEEEEDKEEEAPAAPSLATSPALGHPESTPKSLHPWYGITPTSSPKTKKRPAPRAPSASPLALHASRLSHSEPPSATPSPALSVESLSSESASQTAGAELLEPPAVPKSSSEPAVHAPGTPGNPVSLSTNSSLASSGELVEPRVEQMPQASPGLAPRTRGSSGPQPAKPCSGATPTPLLLVGDRSPVPSPGSSSPQLQVKSSCKENPFNRKPSPAASPATKKATKGSKPVRPPAPGHGFPLIKRKVQADQYIPEEDIHGEMDTIERRLDALEHRGVLLEEKLRGGLNEGREDDMLVDWFKLIHEKHLLVRRESELIYVFKQQNLEQRQADVEYELRCLLNKPEKDWTEEDRAREKVLMQELVTLIEQRNAIINCLDEDRQREEEEDKMLEAMIKKKEFQREAEPEGKKKGKFKTMKMLKLLGNKRDAKSKSPRDKS", "partner": "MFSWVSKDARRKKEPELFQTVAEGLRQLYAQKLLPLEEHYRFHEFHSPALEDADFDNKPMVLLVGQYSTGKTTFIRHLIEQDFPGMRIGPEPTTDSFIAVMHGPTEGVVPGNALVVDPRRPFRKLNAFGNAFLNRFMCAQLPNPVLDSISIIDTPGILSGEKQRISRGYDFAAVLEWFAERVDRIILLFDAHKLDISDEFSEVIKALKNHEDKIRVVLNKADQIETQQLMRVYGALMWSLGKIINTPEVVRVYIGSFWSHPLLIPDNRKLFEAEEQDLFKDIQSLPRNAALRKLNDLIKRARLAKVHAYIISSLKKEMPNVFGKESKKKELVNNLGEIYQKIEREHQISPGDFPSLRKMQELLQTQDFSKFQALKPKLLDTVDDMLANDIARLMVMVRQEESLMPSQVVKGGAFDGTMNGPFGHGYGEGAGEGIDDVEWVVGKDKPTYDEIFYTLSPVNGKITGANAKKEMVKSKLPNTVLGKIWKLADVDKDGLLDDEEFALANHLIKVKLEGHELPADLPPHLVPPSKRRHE"}, "B2": {"name": "MICAL-like protein 1 (Homo sapiens), Q8N3F8 (parent)", "chain": "B1 chain", "partner": "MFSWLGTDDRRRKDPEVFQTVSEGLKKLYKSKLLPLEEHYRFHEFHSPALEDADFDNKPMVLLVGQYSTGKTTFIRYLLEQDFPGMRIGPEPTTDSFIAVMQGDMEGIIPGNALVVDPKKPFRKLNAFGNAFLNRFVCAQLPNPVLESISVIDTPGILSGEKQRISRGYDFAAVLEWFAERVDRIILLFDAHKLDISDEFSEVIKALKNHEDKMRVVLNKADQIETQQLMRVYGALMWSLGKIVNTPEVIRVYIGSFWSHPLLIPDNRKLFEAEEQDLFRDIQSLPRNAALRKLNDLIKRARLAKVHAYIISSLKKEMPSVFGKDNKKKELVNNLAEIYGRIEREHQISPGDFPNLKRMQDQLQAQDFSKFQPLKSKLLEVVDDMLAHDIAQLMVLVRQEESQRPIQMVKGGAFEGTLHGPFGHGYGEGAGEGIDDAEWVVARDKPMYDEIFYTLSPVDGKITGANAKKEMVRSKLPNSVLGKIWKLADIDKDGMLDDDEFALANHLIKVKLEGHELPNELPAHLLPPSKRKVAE"}, "B3": {"name": "EH domain-containing protein 3 (Homo sapiens), Q9NZN3 (parent)", "chain": "B2 partner", "partner": "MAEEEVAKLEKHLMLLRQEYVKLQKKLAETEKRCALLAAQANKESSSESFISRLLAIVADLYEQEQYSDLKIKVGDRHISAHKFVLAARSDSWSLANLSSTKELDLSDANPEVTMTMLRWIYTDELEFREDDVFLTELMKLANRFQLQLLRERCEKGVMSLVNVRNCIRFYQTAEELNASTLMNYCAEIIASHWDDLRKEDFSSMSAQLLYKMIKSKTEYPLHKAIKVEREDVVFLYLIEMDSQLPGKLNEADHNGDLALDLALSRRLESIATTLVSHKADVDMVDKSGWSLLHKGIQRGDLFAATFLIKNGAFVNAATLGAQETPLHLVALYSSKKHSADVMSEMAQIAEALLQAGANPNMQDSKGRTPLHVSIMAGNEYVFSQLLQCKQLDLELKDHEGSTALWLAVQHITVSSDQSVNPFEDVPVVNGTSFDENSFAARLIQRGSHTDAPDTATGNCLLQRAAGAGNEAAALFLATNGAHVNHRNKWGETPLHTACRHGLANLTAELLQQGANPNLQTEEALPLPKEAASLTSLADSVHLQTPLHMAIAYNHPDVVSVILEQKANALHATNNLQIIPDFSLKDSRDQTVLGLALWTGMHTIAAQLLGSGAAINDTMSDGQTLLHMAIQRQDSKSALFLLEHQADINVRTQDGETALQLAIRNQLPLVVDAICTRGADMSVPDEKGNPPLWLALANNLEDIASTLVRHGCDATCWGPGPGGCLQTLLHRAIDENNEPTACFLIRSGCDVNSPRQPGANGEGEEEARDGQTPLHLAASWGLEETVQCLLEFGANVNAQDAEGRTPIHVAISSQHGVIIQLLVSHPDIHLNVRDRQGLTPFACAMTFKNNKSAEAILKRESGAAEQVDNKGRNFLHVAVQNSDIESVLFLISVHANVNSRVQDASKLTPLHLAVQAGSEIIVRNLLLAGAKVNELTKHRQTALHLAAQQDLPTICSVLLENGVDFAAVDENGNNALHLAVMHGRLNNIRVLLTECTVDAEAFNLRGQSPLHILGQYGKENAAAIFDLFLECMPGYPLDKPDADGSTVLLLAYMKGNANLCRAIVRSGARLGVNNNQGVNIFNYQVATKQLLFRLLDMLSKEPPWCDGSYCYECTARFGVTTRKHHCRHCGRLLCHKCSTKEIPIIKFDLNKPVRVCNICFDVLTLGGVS"}, "B4": {"name": "Rabankyrin-5 (Homo sapiens), Q9P2R3 (parent)", "chain": "B3 partner", "partner": "B2 partner"}, "B5": {"name": "Rabankyrin-5 (Homo sapiens), Q9P2R3 (parent)", "chain": "B3 partner", "partner": "B1 partner"}}}
{"variants_of": "B1", "settings": "with ehd1_human EHD1, Q9H4M9"}
{"variant": "E428A;E429A;E430A;E431A;E432A;D433A", "effect of a mutation on the interaction": "disrupting interaction"}
{"variant": "E429A;E430A;E431A;E432A;D433A", "effect of a mutation on the interaction": "decreasing interaction"}
{"variants_of": "B2", "settings": "with ehd3_human EHD3, Q9NZN3"}
{"variant": "E428A;E429A;E430A;E431A;E432A;D433A", "effect of a mutation on the interaction": "disrupting interaction"}
{"variants_of": "B3", "settings": "with anfy1_human ANKFY1, Q9P2R3"}
{"variant": "MFSWLGTDDRRRKDPEVFQTVSEGLKKLYKSKLLPLEEHYRFHEFHSPALEDADFDNKPMVLLVGQYSTGKTTFIRYLLEQDFPGMRIGPEPTTDSFIAVMQGDMEGIIPGNALVVDPKKPFRKLNAFGNAFLNRFVCAQLPNPVLESISVIDTPGILSGEKQRISRGYDFAAVLEWFAERVDRIILLFDAHKLDISDEFSEVIKALKNHEDKMRVVLNKADQIETQQLMRVYGALMWSLGKIVNTPEVIRVYIGSFWSHPLLIPDNRKLFEAEEQDLFRDIQSLPRNAALRKLNDLIKRARLAKVHAYIISSLKKEMPSVFGKDNKKKELVNNLAEIYGRIEREHQISPGDFPNLKRMQDQLQAQDFSKFQPLKSKLLEVVDDMLAHDIAQLMVLVRQEESQRPIQMVKGGAFEGTLHGPFGHGYGEGAGEGIDDAEWVVARDKPMYDEIFYTLSPVDGKITGANAKKEMVRSKLPNSVLGKIWKLADIDKDGMLDDDEFALANHLIKVKLEGHELPADLPAHLLPPSKRKVAE", "note": "[N519A;E520D]", "effect of a mutation on the interaction": "causing an interaction"}
{"variants_of": "B3", "settings": "with anfy1_human ANKFY1, Q9P2R3", "remark": "another data set of the same source"}
{"variant": "MFSWLGTDDRRRKDPEVFQTVSEGLKKLYKSKLLPLEEHYRFHEFHSPALEDADFDNKPMVLLVGQYSTGKTTFIRYLLEQDFPGMRIGPEPTTDSFIAVMQGDMEGIIPGNALVVDPKKPFRKLNAFGNAFLNRFVCAQLPNPVLESISVIDTPGILSGEKQRISRGYDFAAVLEWFAERVDRIILLFDAHKLDISDEFSEVIKALKNHEDKMRVVLNKADQIETQQLMRVYGALMWSLGKIVNTPEVIRVYIGSFWSHPLLIPDNRKLFEAEEQDLFRDIQSLPRNAALRKLNDLIKRARLAKVHAYIISSLKKEMPSVFGKDNKKKELVNNLAEIYGRIEREHQISPGDFPNLKRMQDQLQAQDFSKFQPLKSKLLEVVDDMLAHDIAQLMVLVRQEESQRPIQMVKGGAFEGTLHGPFGHGYGEGAGEGIDDAEWVVARDKPMYDEIFYTLSPVDGKITGANAKKEMVRSKLPNSVLGKIWKLADIDKDGMLDDDEFALANHLIKVKLEGHELPAELPAHLLPPSKRKVAE", "note": "[N519A]", "effect of a mutation on the interaction": "causing an interaction"}
{"variant": "MFSWLGTDDRRRKDPEVFQTVSEGLKKLYKSKLLPLEEHYRFHEFHSPALEDADFDNKPMVLLVGQYSTGKTTFIRYLLEQDFPGMRIGPEPTTDSFIAVMQGDMEGIIPGNALVVDPKKPFRKLNAFGNAFLNRFVCAQLPNPVLESISVIDTPGILSGEKQRISRGYDFAAVLEWFAERVDRIILLFDAHKLDISDEFSEVIKALKNHEDKMRVVLNKADQIETQQLMRVYGALMWSLGKIVNTPEVIRVYIGSFWSHPLLIPDNRKLFEAEEQDLFRDIQSLPRNAALRKLNDLIKRARLAKVHAYIISSLKKEMPSVFGKDNKKKELVNNLAEIYGRIEREHQISPGDFPNLKRMQDQLQAQDFSKFQPLKSKLLEVVDDMLAHDIAQLMVLVRQEESQRPIQMVKGGAFEGTLHGPFGHGYGEGAGEGIDDAEWVVARDKPMYDEIFYTLSPVDGKITGANAKKEMVRSKLPNSVLGKIWKLADIDKDGMLDDDEFALANHLIKVKLEGHELPNDLPAHLLPPSKRKVAE", "note": "[E520D]", "effect of a mutation on the interaction": "causing an interaction"}
{"variants_of": "B4", "settings": "with ehd3_human EHD3, Q9NZN3"}
{"variant": "V420Y", "effect of a mutation on the interaction": "causing an interaction"}
{"variant": "Q418K", "effect of a mutation on the interaction": "causing an interaction"}
{"variant": "V420A", "effect of a mutation on the interaction": "causing an interaction"}
{"variant": "Q418K;S419P;V420Y", "effect of a mutation on the interaction": "causing an interaction"}
{"variants_of": "B5", "settings": "with ehd1_human EHD1, Q9H4M9"}
{"variant": "S419P", "effect of a mutation on the interaction": "disrupting interaction"}
